The nature of series [1]: Non-permeabilised mAb-1438 immunolabelling, HEK, untagged. Particulars: glycan lost; control: wild type.
Series [2] in a line: Non-permeabilised mAb-1438 immunolabelling, HEK, mGluR6-EGFP. Particulars: glycan lost; control: wild type mGluR6-EGFP.
Series [3] is described as follows: EGFP in TRPM1-positive OPL puncta, electroporated mouse retina. Particulars: glycan lost; control: wild type mGluR6-EGFP.
A short description of series [4]: Total EGFP fluorescence, HEK. Particulars: glycan lost; control: wild type mGluR6-EGFP.
Series [5] is described as follows: Permeabilised mAb-1438 immunolabelling, HEK, untagged. Conditions: glycan lost; control: wild type.

B1: mGluR6 (metabotropic glutamate receptor 6): N445Q (protein)
parent chain: MGRLRVLLLWLAWWLSQAGIAHGAGSVRLAGGLTLGGLFPVHARGAAGRACGTLKKEQGVHRLEAMLYALDRINADPELLPGVRLGARLLDTCSRDTYALEQALSFVQALIRGRGDGEEASVRCPGGVPPLRAAPPERVVAVVGASASSVSIMVANVLRLFAIPQISYASTAPELSDSTRYDFFSRVVPPDSYQAQAMVDIVRALGWNYVSTLASEGNYGESGVEAFVQISREAGGVCIAQSIKIPREPKPGEFHKVIRRLMETPNARGIIIFANEDDIRRVLEATRQANLTGHFLWVGSDSWGSKISPILNLEEEAVGAITILPKRASIDGFDQYFMTRSLENNRRNIWFAEFWEENFNCKLTSSGGQSDDSTRKCTGEERIGQDSTYEQEGKVQFVIDAVYAIAHALHSMHQALCPGHTGLCPAMEPTDGRTLLHYIRAVRFNGSAGTPVMFNENGDAPGRYDIFQYQATNGSASSGGYQAVGQWAEALRLDMEALQWSGDPHEVPPSQCSLPCGPGERKKMVKGVPCCWHCEACDGYRFQVDEFTCEACPGHMRPTPNHTGCRPTPVVRLTWSSPWAALPLLLAVLGIMATTTIIATFMRHNDTPIVRASGRELSYVLLTGIFLIYAITFLMVAEPCAAVCASRRLLLGLGTTLSYSALLTKTNRIYRIFEQGKRSVTPPPFISPTSQLVITFGLTSLQVVGVIAWLGAQPPHSVIDYEEQRTVDPEQARGVLKCDMSDLSLIGCLGYSLLLMVTCTVYAIKARGVPETFNEAKPIGFTMYTTCIIWLAFVPIFFGTAQSAEKIYIQTTTLTVSLSLSASVSLGMLYVPKTYVILFHPEQNVQKRKRSLKKTSTMAAPPKSENSEDAK
As for B1, the localisation_or_trafficking entry in series [1] is on record as “decreases”; in series [2], “decreases”; in series [3], “no change”.

B2: mGluR6 (metabotropic glutamate receptor 6): N561Q (protein)
parent chain: B1 parent chain
In the case of B2, the localisation_or_trafficking result is “decreases” in series [1], “decreases” in series [2] and “no change” in series [3]. Further, the expression_or_secretion result in series [4] is reported as “decreases”.

B3: mGluR6 (metabotropic glutamate receptor 6): 4Q (protein)
parent chain: B1 parent chain
On to B3, for which the localisation_or_trafficking entry in series [1] and in series [3] was “abolishes” in each case. In addition, the expression_or_secretion entry in series [5] and in series [4] was “decreases” each time.

Values taken from paper PMC10973816.
